Consider 16 molecules from patent US20260176365A1 (SYNTHEKINE, published 2026).

The target in assay [1] is T1, hGP130-his (Sino Biological, Catalog# 10974) (human, UniProt P40189 23-619).
T1 construct: Bought reagent; also called extracellular domain of gp130; not shown: C-terminal poly-His tag
T1 sequence: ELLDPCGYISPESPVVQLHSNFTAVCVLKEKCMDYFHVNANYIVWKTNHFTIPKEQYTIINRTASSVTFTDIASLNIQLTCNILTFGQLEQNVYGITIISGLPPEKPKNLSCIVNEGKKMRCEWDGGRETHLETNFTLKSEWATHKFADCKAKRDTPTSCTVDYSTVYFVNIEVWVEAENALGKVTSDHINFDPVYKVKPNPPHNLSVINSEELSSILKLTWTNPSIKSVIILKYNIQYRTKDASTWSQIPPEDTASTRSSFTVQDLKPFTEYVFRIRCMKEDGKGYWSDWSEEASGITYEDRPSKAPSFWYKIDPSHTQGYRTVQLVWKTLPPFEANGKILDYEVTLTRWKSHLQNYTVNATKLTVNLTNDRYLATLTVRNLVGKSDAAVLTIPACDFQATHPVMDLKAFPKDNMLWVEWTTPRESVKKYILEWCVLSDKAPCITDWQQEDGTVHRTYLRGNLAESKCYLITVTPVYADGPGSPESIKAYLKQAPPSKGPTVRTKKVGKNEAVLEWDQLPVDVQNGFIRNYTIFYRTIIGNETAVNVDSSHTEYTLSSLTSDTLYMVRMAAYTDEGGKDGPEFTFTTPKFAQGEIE
The assay is described as follows: SPR (Biacore T200), Mono-Fc VHH captured on Protein A chip, hGP130-his in solution, 1:1 fit. The procedure: A representative example from each hgp130 VHH and mgp130 VHH clonotype generated in accordance with Examples 1-3 was selected for evaluation of binding via SPR as follows. […] All experiments were conducted in 10 mM Hepes, 150 mM NaCl, 0.05% (v/v) Polysorbate 20 (PS20) and 3 mM EDTA (HBS-EP+ buffer) on a Biacore T200 instrument equipped with a Protein A derivatized sensor chip (Cytiva). Mono-Fc VHH ligands were flowed at 5 μl/min for variable time ranging from 18 to 300 seconds, reaching the capture loads listed in the tables below. Following ligand capture, […], typically comprising at least five concentrations between 1 μM and 1 nM, were performed in either high performance or single cycle kinetics mode. Surface regeneration was achieved by flowing 10 mM glycine-HCl, pH 1.5 (60 seconds, 50 μL/min). Buffer-subtracted sensograms were processed with Biacore T200 Evaluation Software and globally fit with a 1:1 Langmuir binding model (bulk shift set to zero) to extract kinetics and affinity constants (kₐ, kd, KD). RMAX<100 RU indicates surface density compatible with kinetics analysis. Calculated Rₘₐₓ values were generated using the equation: Rₘₐₓ=Load (RU)×valency of ligand×(Molecular weight of analyte/Molecular weight of ligand). Surface activity was defined as the ratio of experimental/calculated Rmax.
(In general: Surface plasmon resonance follows binding to a sensor surface in real time, without labels.)

The target in assay [2] is T2, mgp130 ECD antigen (mouse, UniProt Q00560 23-617).
T2 construct: Antigen of biopanning and PE-ELISA; The immunogen was an ECD-human IgG1 hinge-Fc fusion; also called ECD of mouse gp130; ngp130 ECD antigen (so in the source)
T2 sequence: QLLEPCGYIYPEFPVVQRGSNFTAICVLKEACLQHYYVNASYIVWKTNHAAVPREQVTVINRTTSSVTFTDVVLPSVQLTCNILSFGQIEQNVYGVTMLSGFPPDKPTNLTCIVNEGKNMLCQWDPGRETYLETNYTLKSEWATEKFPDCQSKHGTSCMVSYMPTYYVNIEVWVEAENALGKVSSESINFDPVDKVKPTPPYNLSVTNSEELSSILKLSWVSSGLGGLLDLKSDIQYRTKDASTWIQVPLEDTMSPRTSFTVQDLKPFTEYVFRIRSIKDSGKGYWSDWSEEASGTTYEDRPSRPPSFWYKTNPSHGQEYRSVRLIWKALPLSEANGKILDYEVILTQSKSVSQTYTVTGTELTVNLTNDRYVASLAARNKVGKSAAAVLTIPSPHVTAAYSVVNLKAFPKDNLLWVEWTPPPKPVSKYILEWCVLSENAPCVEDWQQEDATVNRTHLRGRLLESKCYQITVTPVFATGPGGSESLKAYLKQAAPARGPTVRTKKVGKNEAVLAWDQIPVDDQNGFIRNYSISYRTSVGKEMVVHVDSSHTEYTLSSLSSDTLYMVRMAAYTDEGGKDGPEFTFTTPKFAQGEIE
Description: periplasmic extract ELISA (PE-ELISA) of phage clones. A general note: An ELISA detects its analyte on a solid surface through an enzyme-linked reagent.

Assay [3] addresses hGP130-his (Sino Biological, Catalog# 10974) (human) (UniProt P40189). Description: SPR (Biacore T200), Mono-Fc VHH captured on Protein A chip, hGP130-his in solution, 1:1 fit.

B1: DR594 Mono-Fc VHH (Fc fusion)
chain: QVQLQESGGGSVQAGGSLRLSCVASASTYCTYDMHWYRQAPGKGREFVSAIDSDGTTRYADSVKGRFTISQGTAKNTVYLQMNSLQPEDTAMYYCKTVCVVGSRWSDYWGQGTQVTVSS
notes: Mono-Fc format is not described further; also called anti-hGP130 Mono-Fc VHH; not shown: Fc part of the Mono-Fc format
On to B1, for which, in assay [1], the Kd worked out at 0.058 µM, the koff was found to be 0.0095 s⁻¹ and the kon was determined as 160000 M⁻¹ s⁻¹.

B2: mgp130_VHH3 (VHH)
VHH: QVQLQESGGGLVQPGGSLRLSCAASGFTLSTYWIYWVRQAPGKGPEWVSTVSRSGGTTYYADSVNGRFTISRDNAKNTVYLQMNNLKPEDAAVYYCLASVSNLGWPPVRAPSPTGQGTQVTVSS
notes: As periplasmic extract of the phage clone; also called anti-mouse gp130 VHH; not shown: HA/His tag of the pMECS phagemid
For B2, in assay [2], the binding result was “binds”.

B3: mgp130_VHH48 Mono-Fc VHH (Fc fusion, not shown: a dimerising Fc or GST)
chain: QVQLQESGGALVQPGGSLRLSCAASGFTFSYYAMKWVRQAPGKGLEWVSSISGGGGATYYADSVKGRFTISRDNTNDTLYLQMNSLKTEDTAVYYCAAQNLDYRGQGTQVTVSS
On to B3, for which, in assay [3], the Kd turned out to be 0.042 µM, the koff stood at 0.0018 s⁻¹ and the kon came to 43000 M⁻¹ s⁻¹.

B4: DR596 Mono-Fc VHH (Fc fusion)
chain: QVQLQESGGGLVQPGGSLRLSCTASGLTFDDSVMGWFRQAPGKGREAVSCISSSGANAFYADSVKGRFTISRDNAKNTLYLQMNSLKPEDTATYYCKRGHACAGYYPIPYDDYWGQGTQVTVSS
notes: as for B1
Consider B4, for which, in assay [1], binding was put at a Kd of 0.044 µM, the koff stood at 0.0082 s⁻¹ and the association rate constant (kon) turned out to be 190000 M⁻¹ s⁻¹.

B5: DR595 Mono-Fc VHH (Fc fusion)
chain: QVQLQESGGGSVQAGGSLTLSCAASEYAYSTCNMGWYRQAPGKERELVSAFISDGSTYYADSVKGRFTITRDNAKNTVYLQMNSLKPEDTAIYYCSANCYRRLRNYWGQGTQVTVSS
notes: as for B1
Consider B5, for which, in assay [1], the Kd was found to be 0.041 µM, the koff turned out to be 0.0073 s⁻¹ and the kon was 180000 M⁻¹ s⁻¹.

B6: DR591 Mono-Fc VHH (Fc fusion)
chain: QVQLQESGGGSVQAGGSLRLSCTASGAIASGYIDSRWCMAWFRQAPGKEREGVAAIWPGGGLTVYADSVKGRFTISRDHAKNTLYLQMNNLKPEDTAMYYCAAGSPRMCPSLEFGFDYWGQGTQVTVSS
notes: as for B1
In assay [1], B6 returned a Kd of 0.033 µM, a koff of 0.0019 s⁻¹ and an on-rate (kon) of 59000 M⁻¹ s⁻¹.

B7: mgp130_VHH6 Mono-Fc VHH (Fc fusion, not shown: a dimerising Fc or GST)
chain: QVQLQESGGGLVQPGGSLRLSCAASGFTLSTYWMYWVRQAPGKGPEWVSAVSRGGFNTYYADSVKGRFTISRDNAKNTVYLQMNSLKPEDTAVYYCMSSVSFYGWPPDRVPSPTGQGTQVTVSS
In assay [3], B7 had a Kd of 0.229 µM, a koff of 0.03 s⁻¹ and a kon of 130000 M⁻¹ s⁻¹.

B8: mgp130_VHH6 (VHH)
VHH: QVQLQESGGGLVQPGGSLRLSCAASGFTLSTYWMYWVRQAPGKGPEWVSAVSRGGFNTYYADSVKGRFTISRDNAKNTVYLQMNSLKPEDTAVYYCMSSVSFYGWPPDRVPSPTGQGTQVTVSS
notes: as for B2
For the molecule B8, the binding result in assay [2] is given as “binds”.

B9: mgp130_VHH13 Mono-Fc VHH (Fc fusion, not shown: a dimerising Fc or GST)
chain: QVQLQESGGGSVQPGGSLRLSCAASGFTFSTYDMSWVRQAPGKGLEWVSTINYSGSSTYYVDSVLGRFTIARDNAKNTLYLQMNNLQTEDTAVYYCASVKERRSNGHPIVFGDRGQGTQVTVSS
In the case of B9, in assay [3], the Kd stood at 0.0356 µM, the off-rate (koff) stood at 0.0037 s⁻¹ and the kon is 110000 M⁻¹ s⁻¹.

B10: mgp130_VHH13 (VHH)
VHH: QVQLQESGGGSVQPGGSLRLSCAASGFTFSTYDMSWVRQAPGKGLEWVSTINYSGSSTYYVDSVLGRFTIARDNAKNTLYLQMNNLQTEDTAVYYCASVKERRSNGHPIVFGDRGQGTQVTVSS
notes: as for B2
For the molecule B10, the binding result in assay [2] was “binds”.

B11: mgp130_VHH16 Mono-Fc VHH (Fc fusion, not shown: a dimerising Fc or GST)
chain: QVQLQESGGGLVQPGGSLRLSCAASGFTFRNYAMSWVRQAPGKGLEWVSAINSGGGSTYYADSVKGRFTISRDNAKNTLYLQMNSLKPEDTAMYYCAKHVTGDYDPSLRYEYNYWSQGTQVTVSS
Regarding B11, in assay [3], the Kd was determined as 0.0174 µM, the koff was 0.00036 s⁻¹ and the kon stood at 21000 M⁻¹ s⁻¹.

B12: mgp130_VHH5 Mono-Fc VHH (Fc fusion, not shown: a dimerising Fc or GST)
chain: QVQLQESGGGSVQAGGSLRLSCVISGFTYRQTFMGWFRQVVGKEREGVAAISTGGGSTIYADSVKGRFTISQDSSKDTVYLEMNGLKLEDTGMYYCAASTVITSESINRNLYQYWGQGTQVTVSS
Turning to B12, in assay [3], the Kd worked out at 0.09 µM, the dissociation rate constant (koff) was 0.0081 s⁻¹ and the kon is 90000 M⁻¹ s⁻¹.

B13: DR592 Mono-Fc VHH (Fc fusion)
chain: QVQLQESGGGSVQAGGSLRLSCTAPGFTSNSCGMDWYRQAPGKEREFVSSISTDGTTGYADSVKGRFTISKDKAKDTVYLQMNSLKPEDTGMYSCKTKDGTIATMELCDFGYWGQGTQVTVSS
notes: as for B1
As for B13, in assay [1], binding was characterised by a dissociation constant (Kd) of 0.038 µM, the koff stood at 0.0059 s⁻¹ and the kon was 160000 M⁻¹ s⁻¹.

B14: mgp130_VHH40 (VHH)
VHH: QVQLQESGGGLVQPGGSLRLSCAASGFTFSNYAMSWVRQAPGKGVEWVSAINSGGSVFYADSVKGRFTISRDNAKNTLYLQLSSLKTEDTAMYYCAKHVTGDYDPSLRYGYNVWSQGTQVTVSS
notes: as for B2
For the molecule B14, the binding result in assay [2] was “binds”.

B15: mgp130_VHH44 Mono-Fc VHH (Fc fusion, not shown: a dimerising Fc or GST)
chain: QVQLQESGGGLVQPGGSLRLSCTASGFTFNSAHLKWERQPPGKGLEWVSFITNGGASTGYADSVKGRFTISRDDAKNTLYLQMNNLKTEDTAVYYCATGGLRGQGTQVTVSS
In the case of B15, in assay [3], the dissociation constant (Kd) was 0.006 µM, the koff came to 0.0012 s⁻¹ and the kon came out at 200000 M⁻¹ s⁻¹.

B16: DR593 Mono-Fc VHH (Fc fusion)
chain: QVQLQESGGGSVQAGGSLRLSCAASGYPYSNGYMGWFRQAPGKEREGVATIYTGDGRTYYADSVKGRFTISRDNAKNTVDLQMSSLKPEDTAMYYCAARAAPLYSSGSPLTRARYNVWGQGTQVTVSS
notes: as for B1
As to B16, in assay [1], the affinity, expressed as Kd, was 0.082 µM; the koff is 0.021 s⁻¹; the kon was found to be 250000 M⁻¹ s⁻¹.

The term Kd denotes a measure of binding affinity in units of concentration. Low readings indicate higher affinity, high ones lower affinity. A word on the koff: it is the first-order rate constant of dissociation. By kon is commonly meant the rate constant with which the complex forms. A higher kon goes with faster complex formation.
